Test results taken from paper PMC7806871 (Cell Death Discovery, 2021).

Target: T1, Tuberculosis necrotizing toxin (TNT), C-terminal domain of CpnT, recombinant TNT-His6x (M. tuberculosis, UniProt O05442 648-846)
T1 construct: not shown: His6, C-terminal, kept
T1 sequence: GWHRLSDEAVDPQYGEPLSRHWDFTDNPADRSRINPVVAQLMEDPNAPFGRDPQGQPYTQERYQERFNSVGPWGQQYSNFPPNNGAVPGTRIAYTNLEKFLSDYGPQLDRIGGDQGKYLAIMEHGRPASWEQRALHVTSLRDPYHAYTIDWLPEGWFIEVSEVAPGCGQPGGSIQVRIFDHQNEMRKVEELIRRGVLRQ
Test: ELISA
Conditions: both partners purified

B1: Immunity factor for TNT (IFT), recombinant IFT-His6x (natural protein)
chain: TIGVDLSTDLQDWIRLSGMNMIQGSETNDGRTILWNKGGEVRYFIDRLAGWYVITSSDRMSREGYEFAAASMSVIEKYLYGYFGGSVRSERELPAIRAPFQPEELMPEYSIGTMTFAGRQRDTLIDSSGTVVAITAADRLVELSHYLDVSVNVIKDSFLDSEGKPLFTLWKDYKG
notes: not shown: His6, C-terminal, kept
- binding result: binds
